# Experimental data from patent US20240343817A1 (STAIDSON BEIJING BIOPHARMACEUTICALS, published 2024).
# Where a chain is given by its changes, count along the chain named.
# B1: D21 (antibody, human IgG4, V domains shown)
# VH: QVQLVQSGAEVKKPGASVKVSCKASVYSFTGYTVNWVRQAPGQRLEWMGLINPRNGGTTYNQKFKGRVTLTIDKSASTAYMELSSLRSEDTAVYYCAWSYYSNPYAMDYWGQGTLVTVSS
# VL: EIVMTQSPATLSVSPGERATLSCKASQNVHTRVAWYQQKPGQAPRLLIYLASDRRTGIPARFSGSGSGTEFTLTISSLQSEDFAVYYCLQHWNYPLTFGQGTKVEIK
# notes: also called optimized anti-CD40 antibody D21
# B2: D26 (antibody, human IgG4, V domains shown)
# VH: B1 VH with R54Y, G57R, W98S, M107N
# VL: B1 VL
# notes: also called optimized anti-CD40 antibody D26
# B3: D49 (antibody, human IgG4, V domains shown)
# VH: B1 VH with R54Y, T59S, W98S, Y100P
# VL: B1 VL with N93T
# notes: also called optimized anti-CD40 antibody D49
# B4: D46 (antibody, human IgG4, V domains shown)
# VH: B1 VH with R54Y, N55S, W98S, S102V
# VL: B1 VL
# B5: D48 (antibody, human IgG4, V domains shown)
# VH: B1 VH with R54S, W98S, M107N
# VL: B1 VL with R32H
# B6: D50 (antibody, human IgG4, V domains shown)
# VH: B1 VH with R54Y, T59A, W98S, N103D, M107N
# VL: B1 VL
# B7: D51 (antibody, human IgG4, V domains shown)
# VH: B1 VH with R54E, W98S, M107N
# VL: B1 VL
# B8: D1 (antibody, V domains shown)
# VH: EVQLQQSGPDLVKPGASMKISCKASVYSFTGYTVNWVKQSHGKSLEWIGLINPYNGGTTYNQKFKGKATLTIDKSSTTAYMELLSLTSEDSAVYYCASSYYSNPYAMDYWGQGTSVTVSS
# VL: DIVLNQSQKFMSTSVGDRVSITCKASQNVHTAVAWYQQKPGQSPKALIYLASDRRTGIPDRFTGSGSGTDFTLTIDNVQSEDLADYFCLQHWNYPLTFGAGTKLELK
# notes: Full-length chimeric antibody: mouse variable domains with a human IgG1 or IgG4 heavy chain constant domain and a human kappa light chain constant domain; also called anti-CD40 antibody D1; mouse antibody D1
# B9: D2 (antibody, V domains shown)
# VH: EVHVKQSGAELVKPGASVKLSCTASGFNIKDAYMHWVKQRPEQGLEWIGRIDPANGNTKYDPKFQGKASITTDTSSNTAYLQLSSLTSEDTAVYYCTPNYYGSRYPFAYWGQGTTVTVSS
# VL: DIVLTQSPAIMSASPGEKVSITCSASSSVSYMHWFQQKPGTSPKLWIYSTSNLASGVPARFSGSGSGTSYSLTISRMEADDAATYYCQQGSSYPLTFGAGTKLELK
# notes: Full-length chimeric antibody: mouse variable domains with a human IgG1 or IgG4 heavy chain constant domain and a human kappa light chain constant domain; also called anti-CD40 antibody D2
# B10: D3 (antibody, V domains shown)
# VH: B9 VH with H3Q, V4L, K5Q, A32S, S69T, T72A, T97V, S103A, R104A
# VL: B9 VL with T5I, S20T, L45V, S62G, D80E
# notes: Full-length chimeric antibody: mouse variable domains with a human IgG1 or IgG4 heavy chain constant domain and a human kappa light chain constant domain; also called anti-CD40 antibody D3
# B11: D4 (antibody, V domains shown)
# VH: EVMLVESGAELVRPGASVKLSCTASGFKIKDSYIHWMIQRPEQGLEWIGRIDPTNGNTNFDPKFRGKATLTTDTSSNTAYLQLSSLTSEDTAVYYCVPNYYGSRYPFSYWGQGTTVTVSS
# VL: B9 VL with D1Q, S20T, I21M, A25G, T41N, L45I, S49F, D80G, S92T
# B12: D5 (antibody, V domains shown)
# VH: EVQLQQSGAELVSPGVSVKISCKGSGYTFTDHGMHWVKQSHAKSLEWIGVISTSYGVATYNQKFKGKATLSVDKSSSTAYLELARLTSEDSAIYYCARRDSKSPFDYWGQGTTLTVSS
# VL: QIVLTQSPAIMSASPGEKITITCSASSSISSNYLHWYQQKPGFSPKLLIYRTSNLASGVPARFSGSGSGTSYSLTISSMEAEDAATYYCHQYHRSPLTFGAGTKLELK
# notes: Full-length chimeric antibody: mouse variable domains with a human IgG1 or IgG4 heavy chain constant domain and a human kappa light chain constant domain; also called anti-CD40 antibody D5
# B13: D6 (antibody, V domains shown)
# VH: QVQLQQSGAELVRPGVSVKISCKGSGYTFTDHAIHWVKQSHARRLEWIGAISTNYGAATYNQKFKGKATMTVDKSSSTAYMELARLTSEDSAIYYCARRGSHGDWFAYWGQGTLVTVSA
# VL: B9 VL with V3E, S20T, A59V, R76S, D80E, Q88H, G90Y, S91H, S92R, Y93S
# notes: Full-length chimeric antibody: mouse variable domains with a human IgG1 or IgG4 heavy chain constant domain and a human kappa light chain constant domain; also called anti-CD40 antibody D6
# B14: D7 (antibody, V domains shown)
# VH: QIQLLQSGAELVKPGASVKLSCTASGFNIKDAYMHWVKQRPEQGLEWIGRIDPANGYTKSDPKFQGKATITSDTSSNTAYLQLSSLTSEDTAVYYCAPNYYGSRYPFAYWGQGTLVTVSS
# VL: B9 VL with D1Q, S20T, L45I, S49F, D80E, S92T
# notes: Full-length chimeric antibody: mouse variable domains with a human IgG1 or IgG4 heavy chain constant domain and a human kappa light chain constant domain; also called anti-CD40 antibody D7
# Molecular target: T1, human CD40 on cells (human, UniProt P25942 21-277)
# T1 sequence (P25942 21-277 limits assumed): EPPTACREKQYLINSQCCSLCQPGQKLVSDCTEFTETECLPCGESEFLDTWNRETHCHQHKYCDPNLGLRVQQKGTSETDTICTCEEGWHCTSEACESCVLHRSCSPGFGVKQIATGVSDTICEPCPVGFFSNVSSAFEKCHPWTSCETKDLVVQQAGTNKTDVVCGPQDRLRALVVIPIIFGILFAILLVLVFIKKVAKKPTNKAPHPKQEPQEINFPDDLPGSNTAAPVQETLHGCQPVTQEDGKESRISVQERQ
# Test: cell-based or functional assay
row,Binder,"IC50, HEK-Blue CD40L NF-κB activation assay (SEAP), antibody as human IgG4 [µg/mL]"
1,B1,0.0102
2,B2,0.00908
3,B3,0.0112
4,B4,0.0112
5,B5,0.0307
6,B6,0.0142
7,B7,0.0184

# Molecular target: T2, human CD40 extracellular domain (recombinant) (human, UniProt P25942 21-193)
# T2 construct: Extracellular domain expressed in 293F cells; also called hCD40; CD40-His; not shown: tag (His, Avi-His, mouse Fc or human Fc)
# T2 sequence (P25942 21-193): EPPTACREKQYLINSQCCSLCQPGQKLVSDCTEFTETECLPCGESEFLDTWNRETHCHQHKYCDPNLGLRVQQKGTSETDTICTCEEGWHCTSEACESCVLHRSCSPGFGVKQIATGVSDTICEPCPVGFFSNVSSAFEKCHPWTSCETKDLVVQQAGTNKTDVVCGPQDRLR
# Test: SPR, Biacore 8K; antibody on CM5 chip, hCD40 at various concentrations
# Procedure: The binding affinity of the optimized anti-CD40 antibodies with human […] was characterized using Biacore 8K (GE). Anti-CD4 (antibodies were stabilized on sensor chip CM5 The affinities for hCD40 at various concentrations were measured. Using the SPR technology, the association and dissociation rates were measured, and binding affinity was determined.
Binder,Kd [nM],koff [s⁻¹],kon [M⁻¹ s⁻¹]
B1,2.54,0.000606,238000
B2,2.74,0.000596,218000
B3,1.5,0.000295,196000

# Molecular target: T1, human CD40 on cells
# Test: cell-based or functional assay
# Remark: another data set of the same source
row,Binder,"IC50, HEK-Blue CD40L NF-κB activation assay (SEAP), Fc-3*G4S-CD40L stimulus [µg/mL]"
1,B8,0.0215
2,B9,0.0171
3,B10,0.0224
4,B11,0.0167
5,B12,0.0142
6,B13,0.00712
7,B14,0.017

# Molecular target: T3, Rhesus monkey CD40 extracellular domain (recombinant) (Rhesus monkey, UniProt F6SNI1 21-193)
# T3 construct: extracellular domain; also called RheCD40
# Test: ELISA; CD40 extracellular domain coated 0.1 µg/well, antibody titrated from 10 µg/mL 1:3, anti-human IgG-HRP
# Procedure: (§1) ELISA Binding Assay: The selected monoclonal full-length antibodies D1, D2, D3, D5, D6, or D7 were subjected to binding assays with CD40 extracellular domain of different species, respectively. The assay was designed to identify full-length antibodies that cross-reacted with CD40 of different species. Briefly, the human or Rhesus monkey CD40 prepared in example 1 was dissolved in PBS and coated on […] with 0.1 μg/well followed by incubation at 4° C. overnight. The 96-well plates were washed with TBST before adding antibodies, blocked with 5% milk for 1-2 h at 37° C., and washed again with TBST. Firstly, each antibody sample was diluted to 10 μg/mL, and then serially diluted at a 1:3 ratio. 100 μL of serially diluted antibodies were added to each well and incubated for 1 h at 37° C. After washing with TBST for 6 times, 100 μL of the secondary antibody (goat anti-human IgG-HRP (Sigma. A8667)) was added to each well and incubated for 1 h at 37° C. After washing with TBST for 3 times, TMB was added with 100 μL/well and incubated for 10-20 minutes at 37° C. 2M H₂SO₄ was used to stop the reaction and plates were read for the absorbance at 450 nm. The ELISA results were then analyzed and the binding curves were generated by PRISM.
row,Binder,EC50 [µg/mL]
1,B8,0.227
2,B9,0.473
3,B10,0.0743
4,B12,0.627
5,B13,0.243
6,B14,0.133

# Molecular target: T2, human CD40 extracellular domain …
# Test: as above
# Procedure: as §1
row,Binder,EC50 [µg/mL]
1,B8,0.236
2,B9,0.193
3,B10,0.224
4,B12,0.274
5,B13,0.176
6,B14,0.261

# Molecular target: T3, Rhesus monkey CD40 extracellular domain …
# Test: ELISA, plate coated with recombinant rhesus monkey CD40 extracellular domain, antibody (human IgG4 format) in serial dilution, anti-human IgG-HRP, OD450
# Procedure: as §1
# (§2) The biding affinity of the optimized full length CD40 antibodies with human or rhesus monkey CD40 was evaluated by Elisa according to the corresponding protocol as described in Example 2, and ASKP1240 was used as control.
row,Binder,EC50 (read off the curve) [µg/mL]
1,B1,~0.1
2,B2,~0.1
3,B3,~0.1

# Molecular target: T2, human CD40 extracellular domain …
# Test: ELISA, plate coated with recombinant human CD40 extracellular domain, antibody (human IgG4 format) in serial dilution, anti-human IgG-HRP, OD450
# Procedure: as §1, §2
row,Binder,EC50 (read off the curve) [µg/mL]
1,B1,~0.2
2,B2,~0.2
3,B3,~0.2
